These results are taken from patent publication US20240409645A1 (DUALYX, published 2024).

The assay concerns the target T1, human IL-2 receptor (IL-2Rα/IL-2Rβ/γc) (human, UniProt P01589 22-272; P14784 27-551; P31785 23-369).
T1 sequence 1: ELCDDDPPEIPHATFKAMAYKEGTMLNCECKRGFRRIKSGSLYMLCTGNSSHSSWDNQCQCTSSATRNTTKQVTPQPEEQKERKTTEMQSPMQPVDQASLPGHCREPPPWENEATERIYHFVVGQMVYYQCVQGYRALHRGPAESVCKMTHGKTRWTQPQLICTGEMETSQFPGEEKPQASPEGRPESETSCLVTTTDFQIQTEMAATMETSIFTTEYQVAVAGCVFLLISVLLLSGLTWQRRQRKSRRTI
T1 sequence 2: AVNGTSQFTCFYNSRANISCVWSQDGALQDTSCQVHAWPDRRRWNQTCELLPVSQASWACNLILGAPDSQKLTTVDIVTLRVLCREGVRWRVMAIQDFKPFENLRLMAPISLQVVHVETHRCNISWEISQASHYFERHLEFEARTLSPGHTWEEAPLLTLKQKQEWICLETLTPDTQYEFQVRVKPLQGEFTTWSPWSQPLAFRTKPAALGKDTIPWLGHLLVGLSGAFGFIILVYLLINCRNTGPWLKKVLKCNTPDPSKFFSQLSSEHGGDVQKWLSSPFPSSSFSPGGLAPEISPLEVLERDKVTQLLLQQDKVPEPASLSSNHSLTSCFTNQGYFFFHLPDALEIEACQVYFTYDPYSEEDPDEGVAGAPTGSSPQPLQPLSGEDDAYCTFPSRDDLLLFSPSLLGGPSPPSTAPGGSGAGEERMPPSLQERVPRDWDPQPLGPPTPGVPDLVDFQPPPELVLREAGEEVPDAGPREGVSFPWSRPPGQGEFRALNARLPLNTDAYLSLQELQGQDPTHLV
T1 sequence 3: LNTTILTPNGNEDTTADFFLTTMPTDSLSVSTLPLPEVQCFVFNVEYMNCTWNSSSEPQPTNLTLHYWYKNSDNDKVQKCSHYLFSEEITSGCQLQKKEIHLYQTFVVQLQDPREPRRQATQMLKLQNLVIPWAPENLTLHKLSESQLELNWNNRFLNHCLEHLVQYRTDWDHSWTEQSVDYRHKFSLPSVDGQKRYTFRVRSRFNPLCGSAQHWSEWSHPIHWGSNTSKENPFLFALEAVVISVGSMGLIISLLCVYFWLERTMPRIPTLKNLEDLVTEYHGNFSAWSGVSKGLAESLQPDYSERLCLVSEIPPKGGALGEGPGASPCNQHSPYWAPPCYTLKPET
Briefly: cell-based or functional assay.

B1: DC00076 (other)
chain 1: QVQLVESGGGLVQAGGSLRLSCAASGIPFDNYAMGWFRQAPGKEREFVAARDLEGIITRYGDSVKGRFTISRGNAKNTVFLQMNSLKPEDTAVYYCAARDGGVVAGSRSSAQYNYWGQGTQVTVSSDKTHTCPPCPAPEAAGGPSVFLFPPKPKDTLMISRTPEVTCVVVDVSHEDPEVKFNWYVDGVEVHNAKTKPREEQYNSTYRVVSVLTVLHQDWLNGKEYKCKVSNKALGAPIEKTISKAKGQPREPQVYTLPPSRDELTKNQVSLTCLVKGFYPSDIAVEWESNGQPENNYKTTPPVLDSDGSFLLYSKLTVDKSRWQQGNVFSCSVMHEALHNHYTQKSLSLSPGK
chain 2: QVQLVESGGGLVQPGGSLRLSCATSGFTFRNNFMSWVRQAPGKGLEWVSTISYGGESTTYAESVKGRFTISRDNAKNTLYLQMNNLKPEDTAVYYCAKATSYDSIRSGSRGQGTQVTVSSGGGGSGGGGSGGGGSQVQLVESGGGLVQAGGSLTLSCAAPGRTFGTDVVGWFRQAPGKEREFVASISRSGDGIYYDDSVKGRFTISRNNAWNTVNLQMNSLKVEDTAVYYCAAGDGWSTYDYWGQGTQVTVSSGGGGSGGGGSGGGGSEVQLVESGGGLVQTGGSLRLSCAASGGTFSRDAMAWFRQVPGKEREFVALISWSGATTNYADSVKGRFAISRDNGKNTVYLQMNRLKPADTAIYYCAADRRPMGSRSYFEPTEYDDWGQGTQVTVSSGGGGSGGGGSGGGGSDKTHTCPPCPAPEAAGGPSVFLFPPKPKDTLMISRTPEVTCVVVDVSHEDPEVKFNWYVDGVEVHNAKTKPREEQYNSTYRVVSVLTVLHQDWLNGKEYKCKVSNKALGAPIEKTISKAKGQPREPQVYTLPPSRDELTKNQVSLTCLVKGFYPSDIAVEWESNGQPENNYKTTPPVLDSDGSFFLYSRLTVDKSRWQQGNVFSCSVMHEALHNHYTQKSLSLSPGK
Consider B1, for which the “EC50 (nM) pSTAT5, NK, human PBMCs” value is 2.42 nM; the “EC50 (nM) pSTAT5, Treg, human PBMCs” value is under 0.1 pM; the “Fold Max signal (% pSTAT5+) Treg/NK” value came to 4 fold; the “Max signal (% pSTAT5+), NK” value came out at 14 % pSTAT5+. In addition, the “Max signal (% pSTAT5+), Treg” value was found to be 59.4 % pSTAT5+ and the “fold EC50 NK/Treg” value is over 24200 fold.

B2: DC00077 (other)
chain 1: QVQLVESGGGLVQAGGSLRLSCAASGIPFDNYAMGWFRQAPGKEREFVAARDLEGIITRYGDSVKGRFTISRGNAKNTVFLQMNSLKPEDTAVYYCAARDGGVVAGSRSSAQYNYWGQGTQVTVSSDKTHTCPPCPAPEAAGGPSVFLFPPKPKDTLMISRTPEVTCVVVDVSHEDPEVKFNWYVDGVEVHNAKTKPREEQYNSTYRVVSVLTVLHQDWLNGKEYKCKVSNKALGAPIEKTISKAKGQPREPQVYTLPPSRDELTKNQVSLTCLVKGFYPSDIAVEWESNGQPENNYKTTPPVLDSDGSFLLYSKLTVDKSRWQQGNVFSCSVMHEALHNHYTQKSLSLSPGK
chain 2: QVQLVESGGGLVQPGGSLRLSCATSGFTFRNNFMSWVRQAPGKGLEWVSTISYGGESTTYAESVKGRFTISRDNAKNTLYLQMNNLKPEDTAVYYCAKATSYDSIRSGSRGQGTQVTVSSGGGGSGGGGSGGGGSEVQLVESGGGLVQTGGSLRLSCAASGGTFSRDAMAWFRQVPGKEREFVALISWSGATTNYADSVKGRFAISRDNGKNTVYLQMNRLKPADTAIYYCAADRRPMGSRSYFEPTEYDDWGQGTQVTVSSGGGGSGGGGSGGGGSQVQLVESGGGLVQAGGSLTLSCAAPGRTFGTDVVGWFRQAPGKEREFVASISRSGDGIYYDDSVKGRFTISRNNAWNTVNLQMNSLKVEDTAVYYCAAGDGWSTYDYWGQGTQVTVSSGGGGSGGGGSGGGGSDKTHTCPPCPAPEAAGGPSVFLFPPKPKDTLMISRTPEVTCVVVDVSHEDPEVKFNWYVDGVEVHNAKTKPREEQYNSTYRVVSVLTVLHQDWLNGKEYKCKVSNKALGAPIEKTISKAKGQPREPQVYTLPPSRDELTKNQVSLTCLVKGFYPSDIAVEWESNGQPENNYKTTPPVLDSDGSFFLYSRLTVDKSRWQQGNVFSCSVMHEALHNHYTQKSLSLSPGK
In the case of B2, the “EC50 (nM) pSTAT5, NK, human PBMCs” value stood at 0.191 pM; the “EC50 (nM) pSTAT5, Treg, human PBMCs” value is under 0.1 pM; the “Fold Max signal (% pSTAT5+) Treg/NK” value turned out to be 7 fold; the “Max signal (% pSTAT5+), NK” value was 7.96 % pSTAT5+. The “Max signal (% pSTAT5+), Treg” value is 58.4 % pSTAT5+ and the “fold EC50 NK/Treg” value was over 1.91 fold.
